Source: ChEMBL document CHEMBL2074236, “Renal organic cation and nucleoside transport” (Biochem Pharmacol, 2002)

B1: Solute carrier family 22 member 1 (Rattus norvegicus) (protein)
chain: MPTVDDVLEQVGEFGWFQKQAFLLLCLISASLAPIYVGIVFLGFTPGHYCQNPGVAELSQRCGWSQAEELNYTVPGLGPSDEASFLSQCMRYEVDWNQSTLDCVDPLSSLVANRSQLPLGPCEHGWVYDTPGSSIVTEFNLVCGDAWKVDLFQSCVNLGFFLGSLVVGYIADRFGRKLCLLVTTLVTSVSGVLTAVAPDYTSMLLFRLLQGMVSKGSWVSGYTLITEFVGSGYRRTTAILYQMAFTVGLVGLAGVAYAIPDWRWLQLAVSLPTFLFLLYYWFVPESPRWLLSQKRTTRAVRIMEQIAQKNGKVPPADLKMLCLEEDASEKRSPSFADLFRTPNLRKHTVILMYLWFSCAVLYQGLIMHVGATGANLYLDFFYSSLVEFPAAFIILVTIDRIGRIYPIAASNLVTGAACLLMIFIPHELHWLNVTLACLGRMGATIVLQMVCLVNAELYPTFIRNLGMMVCSALCDLGGIFTPFMVFRLMEVWQALPLILFGVLGLTAGAMTLLLPETKGVALPETIEEAENLGRRKSKAKENTIYLQVQTGKSSST
B2: Solute carrier family 22 member 2 (Rattus norvegicus) (protein)
chain: MSTVDDILEHIGEFHLFQKQTFFLLALLSGAFTPIYVGIVFLGFTPDHHCWSPGAAKLSQRCGWSQAEELNYTVPGLGPSDEASFLSQCMRYEVDWNQSTLDCVDPLSSLAADRNQLPLGPCEHGWVYNTPGSSIVTEFNLVCAHSWMLDLFQSVVNVGFFIGAMMIGYLADRFGRKFCLLVTILINAISGALMAISPNYAWMLVFRFLQGLVSKAGWLIGYILITEFVGLGYRRMVGICYQIAFTVGLLILAGVAYVIPNWRWLQFAVTLPNFCFLLYFWCIPESPRWLISQNKIVKAMKIIKHIAKKNGKSVPVSLQNLTPDEDAGKKLNPSFLDLVRTPQIRKHTLILMYNWFTSSVLYQGLIMHMGLAGDNIYLDFFYSALVEFPAAFIIILTIDRVGRRYPWAVSNMVAGAACLASVFIPDDLQWLKITIACLGRMGITMAYEMVCLVNAELYPTYIRNLGVLVCSSMCDIGGIITPFLVYRLTDIWMEFPLVVFAVVGLVAGALVLLLPETKGKALPETIEDAENMQRPRKKKEKRIYLQVKQADRPLS

Substrate: Nc1ncnc2c1ccn2[C@H]1C[C@H](O)[C@@H](CO)O1
Assay: TP_TRANSPORTER: uptake (pH 5.4) in Xenopus laevis oocytes
Format: functional, cell-based, Oocyte

Row | Protein | Km [µM]
1 | B1 | 23
2 | B2 | 212
